The values below come from patent US7588931B2, “High arachidonic acid producing strains of Yarrowia lipolytica” (E. I. du Pont de Nemours and Company, priority 2004, dated 2009).

Assay type in all cases: cell-based, Yarrowia lipolytica
Data set [1] concerns β-glucuronidase (GUS) reporter. Description: Comparative analysis of promoters by histochemical analysis of GUS expression. Here is the method: Comparative studies investigating the promoter activities of the TEF, GPD, GPDIN, GPM, GPAT, FBA, FBAIN and YAT1 promoters were performed, by synthesizing constructs comprising each promoter and the E. coli gene encoding β-glucuronidase (GUS) as a reporter gene (Jefferson, R. A. Nature. 14(342):837-838 (1989)). Then, GUS activity was measured by histochemical and fluorometric assays (Jefferson, R. A. Plant Mol. Biol. Reporter 5:387-405 (1987)) and/or by using Real Time PCR for mRNA quantitation.
Yarrowia lipolytica ATCC #76982 strains containing plasmids pY5-30, pYZGDG, pYZGMG, pDMW212 and pDMW214 were grown from single colonies in 3 mL MM at 30° C. to an OD600˜1.0. Then, 100 μl of cells were collected by centrifugation, resuspended in 100 μl of histochemical staining buffer, and incubated at 30° C. Staining buffer was prepared by dissolving 5 mg of 5-bromo-4-chloro-3-indolyl glucuronide (X-Gluc) in 50 μl dimethyl formamide, followed by the addition of 5 mL 50 mM NaPO4, pH 7.0.
In a separate experiment, Y. lipolytica Y2034 strains containing plasmids pY5-30, pYGPAT-GUS, pYAT-GUS and pDMW214 were grown from single colonies in 5 mL SD media at 30° C. for 24 hrs to an OD600˜8.0. Then, 1 mL of cells were collected by centrifugation. The remaining cultures were centrifuged and washed 2× with HGM, resuspended in 5 mL each of HGM and allowed to grow at 30° C. further. After 24 and 120 hrs, ˜0.25 mL of each culture were centrifuged to collect the cells. Cell samples were resuspended individually in 100 μl of histochemical staining buffer (supra). Zymolase 20T (5 μl of 1 mg/mL; ICN Biomedicals, Costa Mesa, Calif.) was added to each, and the mixture incubated at 30° C. […]

Data set [2] has as its system β-glucuronidase (GUS) reporter. Put plainly: Relative promoter activity rank from comparative GUS reporter studies (histochemical, fluorometric and/or Real Time PCR). Further details: key: a ‘1’ corresponds to the promoter with lowest activity; a ‘7’ corresponds to the promoter with highest activity. Particulars: relative to other promoters. As for the experimental part:
The activity of GPM is about the same as TEF, while the activity of GPD, FBA, FBAIN, FBAINm, GPDIN, GPAT, YAT1 and EXP1 are all greater than TEF (activity is quantified in a relative manner in the column titled “Activity Rank”, wherein a ‘1’ corresponds to the promoter with lowest activity, while a ‘7’ corresponds to the promoter with highest activity). […] GUS activity in each expressed construct was measured by histochemical and/or fluorometric assays (Jefferson, R. A. Plant Mol. Biol. Reporter 5:387-405 (1987)) and/or by use of Real Time PCR.
(In general: In qPCR the cycle at which signal appears reflects the starting amount.)

Data set [3] concerns β-glucuronidase (GUS) reporter. Description: Comparative analysis of promoters by fluorometric assay of GUS expression. Here is the method:
GUS activity was also assayed by fluorometric determination of the production of 4-methylumbelliferone (4-MU) from the corresponding substrate β-glucuronide (Jefferson, R. A. Plant Mol. Biol. Reporter 5:387-405 (1987)).
Yarrowia lipolytica ATCC #76982 strains containing plasmids pY5-30, PYZGDG, PYZGMG, pDMW212 and pDMW214 were grown from single colonies in 3 mL MM (as described above) at 30° C. to an OD600˜1.0. Then, the 3 mL cultures were each added to a 500 mL flask containing 50 mL MM and grown in a shaking incubator at 30° C. for about 24 hrs. The cells were collected by centrifugation, resuspended in Promega Cell Lysis Buffer and lysed using the BIO 101 Biopulverizer system (Vista, Calif.). After centrifugation, the supernatants were removed and kept on ice.
Similarly, Y. lipolytica strain Y2034 containing plasmids pY5-30, pYAT-GUS, pYGPAT-GUS and pDMW214 constructs, respectively, were grown from single colonies in 10 mL SD medium at 30° C. for 48 hrs to an OD600˜5.0. Two mL of each culture was collected for GUS activity assays, as described below, while 5 mL of each culture was switched into HGM.
Specifically, cells from the 5 mL aliquot were collected by centrifugation, washed once with 5 mL of HGM and resuspended in HGM. The cultures in HGM were then grown in a shaking incubator at 30° C. for 24 hrs. Two mL of each HGM culture were collected for the GUS activity assay, while the remaining culture was allowed to grow for an additional 96 hrs before collecting an additional 2 mL of each culture for the assay.
Each 2 mL culture sample in SD medium was resuspended in 1 mL of 0.5× cell culture lysis reagent (Promega). Resuspended cells were mixed with 0.6 mL of glass beads (0.5 mm diameter) in a 2.0 mL screw cap tube with a rubber O-ring. The cells were then homogenized in a Biospec mini beadbeater (Bartlesville, Okla.) at the highest setting for 90 sec. The homogenization mixtures were centrifuged for 2 min at 14,000 rpm in an Eppendof centrifuge to remove cell debris and beads. The supernatant was used for GUS assay and protein determination.
For each fluorometric assay, 100 μl of extract was added to […] of GUS assay buffer (2 mM 4-methylumbelliferyl-β-D-glucuronide (“MUG”) in extraction buffer) or 200 μl of extract was added to 800 μl of GUS assay buffer. The mixtures were placed at 37° C. Aliquots of 100 μl were taken at 0, 30 and 60 min time points and added to 900 μl of stop buffer (1 M Na2CO3). Each time point was read using a CytoFluor Series 4000 Fluorescence Multi-Well Plate Reader (PerSeptive Biosystems, Framingham, Mass.) set to an excitation wavelength of 360 nm and an emission wavelength of 455 nm. Total protein concentration of each sample was determined using 10 μl of extract and 200 μl of BioRad Bradford reagent or 20 μl of extract and 980 μl of BioRad Bradford reagent (Bradford, M. M. Anal. Biochem. 72:248-254 (1976)). GUS activity was expressed as nmoles of 4-MU per minute per mg of protein.

The mark [4] stands for this setting: ATCC #76982 strains, MM, FIG. 5B.

Entries after “also recorded” stand apart in the source; their conditions may differ.

B1: GPAT: Y. lipolytica glycerol-3-phosphate acyltransferase promoter, SEQ ID NO:164 (nucleic acid, listed as Yarrowia lipolytica)
DNA: CAACTTTTCTTGTCGACCTGAGATACCGAGGTTGCGCAGGGGATCAACTTTTGTGTCTCAGAGGGACCCAAGTGCGTACGGAGAGTACAGTACATACTGTAGCTAACGGTAGCAGGCGAACTACTGGTACATACCTCCCCCGGAATATGTACAGGCATAATGCGTATCTGTGGGACATGTGGTCGTTGCGCCATTATGTAAGCAGCGTGTACTCCTCTGACTGTCCATATGGTTTGCTCCATCTCACCCTCATCGTTTTCATTGTTCACAGGCGGCCACAAAAAAACTGTCTTCTCTCCTTCTCTCTTCGCCTTAGTCTACTCGGACCAGTTTTAGTTTAGCTTGGCGCCACTGGATAAATGAGACCTCAGGCCTTGTGATGAGGAGGTCACTTATGAAGCATGTTAGGAGGTGCTTGTATGGATAGAGAAGCACCCAAAATAATAAGAATAATAATAAAACAGGGGGCGTTGTCATTTCATATCGTGTTTTCACCATCAATACACCTCCAAACAATGCCCTTCATGTGGCCAGCCCCAATATTGTCCTGTAGTTCAACTCTATGCAGCTCGTATCTTATTGAGCAAGTAAAACTCTGTCAGCCGATATTGCCCGACCCGCGACAAGGGTCAACAAGGTGGTGTAAGGCCTTCGCAGAAGTCAAAACTGTGCCAAACAAACATCTAGAGTCTCTTTGGTGTTTCTCGCATATATTTAATCGGCTGTCTTACGTATTTGGCCTCGGTACCGGACTAATTTCGGATCATCCCCAATACGCTTTTTCTTCGCAGCTGTCAACAGTGTCCATGATCTATCCACCTAAATGGGTCATATGAGGCGTATAATTTCGTGGTGCTGATAATAATTCCCATATATTTGACACAAAACTTCCCCCCCTAGACATACATCTCACAATCTCACTTCTTGTGCTTCTGTCACACATCTCCTCCAGCTGACTTCAACTCACACCTCTGCCCCAGTTGGTCTACAGCGGTATAAGGTTTCTCCGCATAGAGGTGCACCACTCCTCCCGATACTTGTTTGTGTGACTTGTGGGTCACGACATATATATCTACACACATTGCGCCACCCTTTGGTTCTTCCAGCACAACAAAAACACGACACGCTAA
modifications: misc_feature: Promoter GPAT
In the case of B1, the “promoter activity by histochemical staining” value in data set [1] (strain Y2034, 24 hr in SD medium, FIG. 5C) was “active; also recorded: much stronger than the TEF promoter”. In addition, the “Activity “Rank”” value in data set [2] was determined as 5. Besides, the GUS activity in data set [3] (strain Y2034, 24 hr, HGM) is given as 2.969 nmoles of 4-MU per minute per mg of protein; in data set [3] (strain Y2034, 48 hr, SD), 5.252 nmoles of 4-MU per minute per mg of protein; in data set [3] (strain Y2034, 120 hr HGM), 3.050 nmoles of 4-MU per minute per mg of protein. In addition, in data set [3] (switched from SD medium into HGM for 24 hrs), the “reduction of promoter activity” value was found to be 40%.

B2: TEF: Y. lipolytica translation elongation factor EF1-α promoter, SEQ ID NO:166 (nucleic acid, listed as Yarrowia lipolytica)
DNA: GACCGGGTTGGCGGCGTATTTGTGTCCCAAAAAACAGCCCCAATTGCCCCAATTGACCCCAAATTGACCCAGTAGCGGGCCCAACCCCGGCGAGAGCCCCCTTCACCCCACATATCAAACCTCCCCCGGTTCCCACACTTGCCGTTAAGGGCGTAGGGTACTGCAGTCTGGAATCTACGCTTGTTCAGACTTTGTACTAGTTTCTTTGTCTGGCCATCCGGGTAACCCATGCCGGACGCAAAATAGACTACTGAAAATTTTTTTGCTTTGTGGTTGGGACTTTAGCCAAGGGTATAAAAGACCACCGTCCCCGAATTACCTTTCCTCTTCTTTTCTCTCTCTCCTTGTCAACTCACACCCGAAATCGTTAAGCATTTCCTTCTGAGTATAAGAATCATTCAAAGGATCCACTAGTTCTAGAGCGGCCGCTTAAACC
modifications: misc_feature: Promoter TEF
On to B2, for which, in data set [1] (setting [4]), the “promoter activity by histochemical staining” value is reported as “active”. In addition, in data set [2], the “Activity “Rank”” value is 1. The GUS activity in data set [3] (strain Y2034, 24 hr, HGM) is listed as 0.942 nmoles of 4-MU per minute per mg of protein; in data set [3] (strain Y2034, 48 hr, SD), 0.401 nmoles of 4-MU per minute per mg of protein; in data set [3] (strain Y2034, 120 hr HGM), 0.466 nmoles of 4-MU per minute per mg of protein. The “increase of promoter activity” value in data set [3] (switched from SD medium into HGM and grown for 24 hrs) is recorded as 2.3 fold.

B3: GPM: Y. lipolytica phosphoglycerate mutase promoter, SEQ ID NO:160 (nucleic acid, listed as Yarrowia lipolytica)
DNA: GCCTCTGAATACTTTCAACAAGTTACACCCTTCATTAATTCTCACGTGACACAGATTATTAACGTCTCGTACCAACCACAGATTACGACCCATTCGCAGTCACAGTTCACTAGGGTTTGGGTTGCATCCGTTGAGAGCGGTTTGTTTTTAACCTTCTCCATGTGCTCACTCAGGTTTTGGGTTCAGATCAAATCAAGGCGTGAACCACTTTGTTTGAGGACAAATGTGACACAACCAACCAGTGTCAGGGGCAAGTCCGTGACAAAGGGGAAGATACAATGCAATTACTGACAGTTACAGACTGCCTCGATGCCCTAACCTTGCCCCAAAATAAGACAACTGTCCTCGTTTAAGCGCAACCCTATTCAGCGTCACGTCATAATAGCGTTTGGATAGCACTAGTCTATGAGGAGCGTTTTATGTTGCGGTGAGGGCGATTGGTGCTCATATGGGTTCAATTGAGGTGGCGGAACGAGCTTAGTCTTCAATTGAGGTGCGAGCGACACAATTGGGTGTCACGTGGCCTAATTGACCTCGGGTCGTGGAGTCCCCAGTTATACAGCAACCACGAGGTGCATGGGTAGGAGACGTCACCAGACAATAGGGTTTTTTTTGGACTGGAGAGGGTTGGGCAAAAGCGCTCAACGGGCTGTTTGGGGAGCTGTGGGGGAGGAATTGGCGATATTTGTGAGGTTAACGGCTCCGATTTGCGTGTTTTGTCGCTCCTGCATCTCCCCATACCCATATCTTCCCTCCCCACCTCTTTCCACGATAATTTTACGGATCAGCAATAAGGTTCCTTCTCCTAGTTTCCACGTCCATATATATCTATGCTGCGTCGTCCTTTTCGTGACATCACCAAAACACATACAAAAATG
modifications: misc_feature: Promoter GPM
Regarding B3, in data set [1] (setting [4]), the “promoter activity by histochemical staining” value is “active”. In data set [2], the “Activity “Rank”” value was 1.
